This is an account of results in patent US20040018971A1.

Where only a bound is given, the exact number is not on record here.

In test [1] the target is HLA-A*2401 (purified HLA class I molecule) (human). Description: competition with 125I-labelled standard peptide for purified HLA, gel filtration. To be noted: scale: ratio. On the technique in general: In gel filtration, larger molecules generally elute earlier.
The target in test [2] is HLA-A*2401 (human). The test is described as above.
For test [3], the target named is HLA-A*2401 (human). In words: inhibition of 125I-labelled standard peptide binding to purified HLA, gel filtration.
A further test concerns the target HLA-A*0201 (human). In words: competitive inhibition of 125I-labeled probe peptide binding to purified HLA-A*0201. To be noted: remark: other sources report otherwise.
Test [4] addresses HLA-A*2401 (purified HLA class I molecule) (human). In words: competition with 125I-labelled probe peptide for purified HLA, gel filtration. To be noted: for relative binding ratio: scale: ratio.

B1: HER2/neu peptide, position 738, 11 amino acids (peptide)
peptide: IWIPDGENVKI
For B1, the relative binding ratio in test [1] amounted to 0.0027.

B2: HER2/neu peptide, position 370, 8 amino acids (peptide)
peptide: IFGSLAFL
As for B2, the relative binding ratio in test [1] was 0.012.

B3: HER2/neu peptide, position 410, 10 amino acids (peptide)
peptide: LYISAWPDSL
Consider B3, for which, in the test with HLA-A*2401 (human) [2], the relative binding ratio (IC50 of standard peptide / IC50 of test peptide) (ratio to standard peptide) came out at 0.084.

B4: HER2/neu peptide, position 907, 9 amino acids (peptide)
peptide: SYGVTVWEL
As for B4, the relative binding ratio (IC50 of standard peptide / IC50 of test peptide) with HLA-A*2401 (human) [3] turned out to be 0.12.

B5: HER2/neu peptide, position 954, 8 amino acids (peptide)
peptide: IMVKCWMI
B5: the relative binding ratio in test [1] stood at 0.021.

B6: HER2/neu peptide, position 257, 10 amino acids (peptide)
peptide: HFNHSGICEL
For B6, in test [1], the relative binding ratio was 0.0002.

B7: Her2/neu.48 (peptide)
peptide: HLYQGCQVV
Broadly, the IC50 is the midpoint of a concentration-inhibition curve. As for B7, the half-maximal inhibitory concentration (IC50) in the test with HLA-A*0201 (human) was less than 500 nM.

B8: HER2/neu peptide, position 107, 8 amino acids (peptide)
peptide: LFEDNYAL
Consider B8, for which the relative binding ratio (IC50 of standard peptide / IC50 of test peptide) (ratio to standard peptide) in the test with HLA-A*2401 (human) [2] was determined as 0.0006.

B9: HER2/neu peptide, position 876, 11 amino acids (peptide)
peptide: EYHADGGKVPI
As for B9, the relative binding ratio in test [1] was -0.0003.

B10: HER2/neu peptide, position 8, 9 amino acids (peptide)
peptide: RWGLLLALL
On to B10, for which the relative binding ratio (IC50 of standard peptide / IC50 of test peptide) with HLA-A*2401 (human) [3] stood at 1.3.

B11: HER2/neu peptide, position 281, 11 amino acids (peptide)
peptide: SMPNPEGRYTF
As for B11, in the test with HLA-A*2401 (human) [3], the relative binding ratio (IC50 of standard peptide / IC50 of test peptide) is 0.018.

B12: HER2/neu peptide, position 686, 11 amino acids (peptide)
peptide: TMRRLLQETEL
For B12, the relative binding ratio (IC50 of standard peptide / IC50 of test peptide) with HLA-A*2401 (human) [3] was -0.0003.

B13: HER2/neu peptide, position 800, 8 amino acids (peptide)
peptide: LMPYGCLL
For B13, the relative binding ratio (IC50 of standard peptide / IC50 of test peptide) (ratio to standard peptide) with HLA-A*2401 (human) [2] turned out to be 0.0076.

B14: HER2/neu peptide, position 915, 9 amino acids (peptide)
peptide: LMTFGAKPY
Regarding B14, in the test with HLA-A*2401 (human) [2], the relative binding ratio (IC50 of standard peptide / IC50 of test peptide) (ratio to standard peptide) is 0.0001.

B15: HER2/neu peptide, position 834, 8 amino acids (peptide)
peptide: SYLEDVRL
As for B15, the relative binding ratio (IC50 of standard peptide / IC50 of test peptide) with HLA-A*2401 (human) [3] came to 0.0059.

B16: HER2/neu peptide, position 917, 10 amino acids (peptide)
peptide: TFGAKPYDGI
Consider B16, for which the relative binding ratio (IC50 of standard peptide / IC50 of test peptide) with HLA-A*2401 (human) [3] is 0.0002.

B17: HER2/neu peptide, position 907, 10 amino acids (peptide)
peptide: SYGVTVWELM
For the molecule B17, the relative binding ratio (IC50 of standard peptide / IC50 of test peptide) in the test with HLA-A*2401 (human) [3] came out at 0.063.

B18: HER2/neu peptide, position 107, 11 amino acids (peptide)
peptide: LFEDNYALAVL
In the case of B18, the relative binding ratio (IC50 of standard peptide / IC50 of test peptide) (ratio to standard peptide) with HLA-A*2401 (human) [2] was determined as 0.0006.

B19: HER2/neu peptide, position 485, 10 amino acids (peptide)
peptide: LFRNPHQALL
Regarding B19, in the test with HLA-A*2401 (human) [2], the relative binding ratio (IC50 of standard peptide / IC50 of test peptide) (ratio to standard peptide) is 0.0014.

B20: HER2/neu peptide, position 451, 11 amino acids (peptide)
peptide: SWLGLRSLREL
Turning to B20, the relative binding ratio (IC50 of standard peptide / IC50 of test peptide) in the test with HLA-A*2401 (human) [3] stood at 0.0036.

B21: HER2/neu peptide, position 951, 10 amino acids (peptide)
peptide: VYMIMVKCWM
For B21, the relative binding ratio (IC50 of standard peptide / IC50 of test peptide) in test [4] amounted to 0.022.

B22: Her2/neu.767 (peptide)
peptide: ILDEAYVMA
Consider B22, for which the IC50 with HLA-A*0201 (human) was less than 500 nM.

B23: HER2/neu peptide, position 63, 11 amino acids (peptide)
peptide: TYLPTNASLSF
For B23, in test [4], the relative binding ratio (IC50 of standard peptide / IC50 of test peptide) was determined as 8.9.

B24: HER2/neu peptide, position 1091, 8 amino acids (peptide)
peptide: GMGAAKGL
Turning to B24, the relative binding ratio in test [1] is -0.0003.

B25: HER2/neu peptide, position 408, 8 amino acids (peptide)
peptide: GYLYISAW
For the molecule B25, the relative binding ratio in test [1] is 0.0044.

B26: HER2/neu peptide, position 898, 9 amino acids (peptide)
peptide: RFTHQSDVW
Regarding B26, the relative binding ratio (IC50 of standard peptide / IC50 of test peptide) with HLA-A*2401 (human) [3] stood at 0.011.

B27: HER2/neu peptide, position 905, 11 amino acids (peptide)
peptide: VWSYGVTVWEL
As for B27, the relative binding ratio (IC50 of standard peptide / IC50 of test peptide) in test [4] is 0.092.

B28: HER2/neu peptide, position 1091, 11 amino acids (peptide)
peptide: GMGAAKGLQSL
Regarding B28, the relative binding ratio in test [1] was -0.0003.

B29: HER2/neu peptide, position 922, 10 amino acids (peptide)
peptide: PYDGIPAREI
In the case of B29, the relative binding ratio (IC50 of standard peptide / IC50 of test peptide) (ratio to standard peptide) in the test with HLA-A*2401 (human) [2] stood at 0.0005.

B30: HER2/neu peptide, position 485, 9 amino acids (peptide)
peptide: LFRNPHQAL
For B30, the relative binding ratio (IC50 of standard peptide / IC50 of test peptide) (ratio to standard peptide) with HLA-A*2401 (human) [2] was 0.0002.

B31: HER2/neu peptide, position 609, 8 amino acids (peptide)
peptide: SYMPIWKF
Take B31: the relative binding ratio (IC50 of standard peptide / IC50 of test peptide) with HLA-A*2401 (human) [3] was found to be 0.32.

B32: HER2/neu peptide, position 424, 8 amino acids (peptide)
peptide: VFQNLQVI
In the case of B32, the relative binding ratio (IC50 of standard peptide / IC50 of test peptide) in test [4] is -0.0003.

B33: HER2/neu peptide, position 1022, 9 amino acids (peptide)
peptide: EYLVPQQGF
For B33, in test [1], the relative binding ratio was found to be 0.0014.

B34: HER2/neu peptide, position 887, 9 amino acids (peptide)
peptide: KWMALESIL
Consider B34, for which the relative binding ratio (IC50 of standard peptide / IC50 of test peptide) (ratio to standard peptide) with HLA-A*2401 (human) [2] is 0.015.

B35: HER2/neu peptide, position 8, 8 amino acids (peptide)
peptide: RWGLLLAL
With B35, in the test with HLA-A*2401 (human) [3], the relative binding ratio (IC50 of standard peptide / IC50 of test peptide) came out at 0.025.

B36: HER2/neu peptide, position 684, 8 amino acids (peptide)
peptide: KYTMRRLL
With B36, the relative binding ratio (IC50 of standard peptide / IC50 of test peptide) (ratio to standard peptide) with HLA-A*2401 (human) [2] worked out at 0.0024.

B37: HER2/neu peptide, position 197, 9 amino acids (peptide)
peptide: PMCKGSRCW
Regarding B37, in the test with HLA-A*2401 (human) [2], the relative binding ratio (IC50 of standard peptide / IC50 of test peptide) (ratio to standard peptide) amounted to 0.0011.

B38: Her2/neu.435 (peptide)
peptide: ILHNGAYSL
In the test with HLA-A*0201 (human), B38 had a 50% inhibitory concentration (IC50) of less than 500 nM.

B39: HER2/neu peptide, position 952, 8 amino acids (peptide)
peptide: YMIMVKCW
Turning to B39, in test [4], the relative binding ratio (IC50 of standard peptide / IC50 of test peptide) is 0.0009 and the relative binding ratio was found to be 0.0009.

B40: Her2/neu.5 (peptide)
peptide: ALCRWGLLL
As to B40, the IC50 with HLA-A*0201 (human) is less than 500 nM.

B41: HER2/neu peptide, position 887, 8 amino acids (peptide)
peptide: KWMALESI
With B41, the relative binding ratio (IC50 of standard peptide / IC50 of test peptide) (ratio to standard peptide) in the test with HLA-A*2401 (human) [2] came out at 0.008.

B42: HER2/neu peptide, position 399, 8 amino acids (peptide)
peptide: VFETLEEI
Regarding B42, in test [4], the relative binding ratio (IC50 of standard peptide / IC50 of test peptide) was -0.0003.

B43: HER2/neu peptide, position 281, 9 amino acids (peptide)
peptide: SMPNPEGRY
Turning to B43, the relative binding ratio (IC50 of standard peptide / IC50 of test peptide) with HLA-A*2401 (human) [3] worked out at 0.0001.

B44: HER2/neu peptide, position 63, 9 amino acids (peptide)
peptide: TYLPTNASL
With B44, the relative binding ratio (IC50 of standard peptide / IC50 of test peptide) in the test with HLA-A*2401 (human) [3] stood at 0.038.

B45: HER2/neu peptide, position 968, 9 amino acids (peptide)
peptide: RFRELVSEF
As to B45, the relative binding ratio (IC50 of standard peptide / IC50 of test peptide) with HLA-A*2401 (human) [3] amounted to 0.018.

B46: HER2/neu peptide, position 772, 10 amino acids (peptide)
peptide: YVMAGVGSPY
Take B46: the relative binding ratio (IC50 of standard peptide / IC50 of test peptide) in test [4] worked out at 0.0001.

B47: HER2/neu peptide, position 824, 10 amino acids (peptide)
peptide: NWCMQIAKGM
B47: in the test with HLA-A*2401 (human) [2], the relative binding ratio (IC50 of standard peptide / IC50 of test peptide) (ratio to standard peptide) amounted to 0.0002.

B48: HER2/neu peptide, position 1111, 10 amino acids (peptide)
peptide: RYSEDPTVPL
Take B48: in the test with HLA-A*2401 (human) [3], the relative binding ratio (IC50 of standard peptide / IC50 of test peptide) was 0.012.

B49: HER2/neu peptide, position 959, 11 amino acids (peptide)
peptide: WMIDSECRPRF
In the case of B49, in test [4], the relative binding ratio (IC50 of standard peptide / IC50 of test peptide) is 0.0011 and the relative binding ratio was found to be 0.0011.

B50: HER2/neu peptide, position 553, 9 amino acids (peptide)
peptide: EYVNARHCL
Consider B50, for which the relative binding ratio in test [1] stood at 0.0061.

B51: HER2/neu peptide, position 780, 9 amino acids (peptide)
peptide: PYVSRLLGI
Consider B51, for which, in the test with HLA-A*2401 (human) [2], the relative binding ratio (IC50 of standard peptide / IC50 of test peptide) (ratio to standard peptide) was 0.17.

B52: HER2/neu peptide, position 451, 8 amino acids (peptide)
peptide: SWLGLRSL
For B52, in the test with HLA-A*2401 (human) [3], the relative binding ratio (IC50 of standard peptide / IC50 of test peptide) is -0.0003.

B53: HER2/neu peptide, position 1022, 10 amino acids (peptide)
peptide: EYLVPQQGFF
In the case of B53, in test [1], the relative binding ratio was found to be 0.012.

B54: HER2/neu peptide, position 985, 10 amino acids (peptide)
peptide: RFVVIQNEDL
Take B54: the relative binding ratio (IC50 of standard peptide / IC50 of test peptide) with HLA-A*2401 (human) [3] was determined as 0.0002.

B55: HER2/neu peptide, position 905, 9 amino acids (peptide)
peptide: VWSYGVTVW
Turning to B55, the relative binding ratio (IC50 of standard peptide / IC50 of test peptide) in test [4] was found to be 0.08.

B56: HER2/neu peptide, position 273, 10 amino acids (peptide)
peptide: TYNTDTFESM
B56: the relative binding ratio (IC50 of standard peptide / IC50 of test peptide) in test [4] was 0.0074.

B57: HER2/neu peptide, position 172, 8 amino acids (peptide)
peptide: IFHKNNQL
In the case of B57, the relative binding ratio in test [1] is -0.0003.

B58: HER2/neu peptide, position 978, 9 amino acids (peptide)
peptide: RMARDPQRF
Regarding B58, the relative binding ratio (IC50 of standard peptide / IC50 of test peptide) with HLA-A*2401 (human) [3] was found to be 0.0032.
